# T1: rat GDNF (glial cell line-derived neurotrophic factor) (rat, UniProt Q07731 78-211)
# T1 sequence (looked up): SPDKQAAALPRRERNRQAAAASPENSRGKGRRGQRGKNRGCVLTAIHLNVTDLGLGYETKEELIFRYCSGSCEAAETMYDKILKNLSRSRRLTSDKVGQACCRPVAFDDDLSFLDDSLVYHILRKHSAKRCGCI
# T2: human neurturin (NRTN) (human, UniProt Q99748 96-197)
# T2 sequence (looked up): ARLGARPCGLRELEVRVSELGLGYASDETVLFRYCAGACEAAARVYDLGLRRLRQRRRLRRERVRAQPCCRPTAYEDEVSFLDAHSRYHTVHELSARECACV
# B1: human GFRα4, GPI-anchored isoform a (GFRα4a) (receptor)
# chain: VGGNRCVDAAEACTADARCQRLRSEYVAQCLGRAAQGGCPRARCRRALRRFFARGPPALTHALLFCPCAGPACAERRRQTFVPSCAFSGPGPAPPSCLEPLNFCERSRVCRPRLLAFQVSCTPAPSAPDGCLLDQGARCLRAYAGLVGTAVTPNYVDNVSARVAPWCDCGASGNRREDCEAFRGLFTRNRCLDGAIQAFASGWPPVLLDQLNPQGDPEHSLLQVSSTG
# modifications: GPI anchor (released by PI-PLC)
# notes: Expressed from full-length GFRA4a cDNA (pCR3.1) in mouse Neuro-2a cells (endogenous Ret), in CHO cells (no Ret) or microinjected into mouse SCG neurons; also called hGFRα4; GFRA4a
# B2: human persephin (PSPN) (ligand, UniProt O60542 61-156, looked up)
# chain: ALSGPCQLWSLTLSVAELGLGYASEEKVIFRYCAGSCPRGARTQHGLALARLQGQGRAHGGPCCRPTRYTDVAFLDDRHRWQRLPQLSAAACGCGG
# notes: Cross-linking gels show monomer (approx. 14-16 kDa) and dimer (32 kDa) bands; also called unlabeled PSPN
# Legend:
# [1] = target: T1, rat GDNF (glial cell line-derived …); assay: displacement of 0.9 nM [125I]PSPN from GFRA4a-transfected Neuro-2a cells
# Experimental: (§1) J. Milbrandt and E. M. Johnson, Jr.). […] was calculated using Cheng-Prusoff equation (McGonigle, et al., 1994).
# [2] = target: T2, human neurturin (NRTN); assay: as above
# Experimental: as §1
# [3] = target: B2; assay: displacement of [125I]PSPN from GFRA4a-transfected Neuro-2a cells; KD calculated using Cheng-Prusoff equation
# Experimental: as §1
# [4] = target: B1; assay: displacement of 0.9 nM [125I]PSPN by unlabeled PSPN from GFRA4a-transfected Neuro-2a cells (endogenous Ret), 4 hrs on ice
# Experimental: as §1
binding result [1],binding result [2],Kd [3] [nM],IC50 [4] [nM],Binder
no binding (tested: up to 300 nM),no binding (tested: up to 200 nM),~0.1,–,B1
–,–,–,1,B2

# Source: patent US7488588 (LICENTIA, dated 2009)
